Experimental data taken from patent US20110110959A1 (BIOSCEPTRE AUST, published 2011).

T1: composite peptide GHNYTTRNILPGAGAKYYKENNVEK (BSA carrier protein attached for coating of ELISA plates)
T1 construct: also called EP200/300; 200/300-peptide
T1 peptide: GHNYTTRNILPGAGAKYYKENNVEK

T2: 200 (a peptide having the sequence of the E200 region)
T2 construct: also called E200 peptide
T2 peptide: GHNYTTRNILPGLNITC

T3: 300 (a peptide having the sequence of the E300 region)
T3 construct: also called E300 peptide
T3 peptide: KYYKENNVEKRTLIKVF

B1: 2A11 (antibody, V domains shown)
VH: QVQLQESGGGSVQAGGSLRLSCTASGFTLDDSDLGWYRQAPGNECELVSIIRRDGSPYHTYYPDSVKGRFTISQDNAKNTLYLQMNSLKPEDTAVYYCAADPSRYYSDYGAPGCGFNYWGQGTQVTVSS

Assays:
HLA (human) [1] = test: FACS, human lymphocytes
HLA (human) [2] = test: FACS, MCF-7 breast tumour cell line
U140 [3] = test: ELISA, coated antigen, supernatant, duplicate 1
U80 [4] = test: ELISA, coated antigen, supernatant, duplicate 1
U140 [5] = test: ELISA, coated antigen, supernatant, duplicate 2
U80 [6] = test: ELISA, coated antigen, supernatant, duplicate 2
[7] = molecular target: T1, composite peptide …; test: ELISA, coated antigen, supernatant, duplicate 1
[8] = molecular target: T2, 200 (a peptide having the sequence of …); test: ELISA, coated antigen, supernatant, duplicate 1
[9] = molecular target: T3, 300 (a peptide having the sequence of …); test: ELISA, coated antigen, supernatant, duplicate 1
[10] = molecular target: T1, composite peptide …; test: ELISA, coated antigen, supernatant, duplicate 2
[11] = molecular target: T2, 200 (a peptide having the sequence of …); test: ELISA, coated antigen, supernatant, duplicate 2
[12] = molecular target: T3, 300 (a peptide having the sequence of …); test: ELISA, coated antigen, supernatant, duplicate 2

Molecule | Mean Fluorescence Intensity (MFI) (HLA (human) [1]) | Percent Cells Positive (HLA (human) [1]) | Mean Fluorescence Intensity (MFI) (HLA (human) [2]) | Percent Cells Positive (HLA (human) [2]) | ELISA absorbance (405 nm, reference 490 nm) (U140 [3]) | ELISA absorbance (405 nm, reference 490 nm) (U80 [4]) | ELISA absorbance (405 nm, reference 490 nm) (U140 [5]) | ELISA absorbance (405 nm, reference 490 nm) (U80 [6]) | ELISA absorbance (405 nm, reference 490 nm) [7] | ELISA absorbance (405 nm, reference 490 nm) [8] | ELISA absorbance (405 nm, reference 490 nm) [9] | ELISA absorbance (405 nm, reference 490 nm) [10] | ELISA absorbance (405 nm, reference 490 nm) [11] | ELISA absorbance (405 nm, reference 490 nm) [12]
HLA (W6/32) Positive Control (antibody) | 3900 MFI | 100% | 1670 MFI | 87% | – | – | – | – | – | – | – | – | – | –
B1 | – | – | – | – | 0.17 OD | 0.181 OD | 0.508 OD | 0.154 OD | 3.62 OD | 0.138 OD | 0.144 OD | 3.6 OD | 0.194 OD | 0.186 OD
